According to the supplement of paper PMC9170038:

Tested on: MS2 coat protein
Assay: apparent KD of MS2 coat protein; designed switch direction (-1 OFF switch, 1 ON switch): 1; higher = weaker reporter binding
Procedure, shortened: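 Designed RNA switches with common flanks were transcribed on Illumina chips by stalled E. coli RNA polymerase and titrated with SNAP-549-labelled MS2 coat protein, from 0.7 or 1.5 nM doubling to 3 µM, in Tris-HCl pH 7.5 buffer with KCl, MgCl2, BSA, DTT, tRNA and Tween-20. Steps lasted 0.8–1.5 h (lowest) to 10–20 min (highest). Titrations ran without input, with 200 uM small-molecule ligand, or with an oligonucleotide input. Normalised cluster fluorescence was curve-fitted, and apparent KD is the per-design median over clusters.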

[1] = input ligand: microRNA oligo, concentration not stated
[2] = Eterna round: R95, input ligand: FMN 200 uM
[3] = Eterna round: R95, input ligand: microRNA oligo, concentration not stated
[4] = Eterna round: R95, input ligand: none

| Sequence | apparent KD of MS2 coat protein [1] [µM] | apparent KD of MS2 coat protein (input ligand: FMN 200 uM) [µM] | apparent KD of MS2 coat protein (input ligand: none) [µM] | apparent KD of MS2 coat protein [2] [µM] | apparent KD of MS2 coat protein [3] [µM] | apparent KD of MS2 coat protein [4] [µM] |
| --- | --- | --- | --- | --- | --- | --- |
| UGUUGUAUUACAGGAUAUCUAUUAGUUUUAGUUAGAGAAGGGUAUUCACAUGAGGAUCACCCAUGUAUAUACGAGGAAGUUGUG [JMF's solution 99] (Eterna round: R96, puzzle: Same State NG 1) | 0.0346 | – | – | – | – | – |
| AGUCCACGCUGACGUGGACAAAAGCAUGUACAUGAGGAUCACCCAUGUCAUGUACAAGCUUUUUGCUCGUCUUAAAA [Mat - hsa-mir-208a - Mod of JL - D17] (Eterna round: R96, puzzle: Sensor for hsa-mir-208a) | 0.0132 | 0.346 | 0.447 | – | – | – |
| GUCCAAAACACAGGAUAUCCCAGUCAUGAUCUGGGAGAAGGGUGGCCACAUGAGGAUCACCCAUGUGAAGUGCCAGAGGCACGA [Xexeraed] (Eterna round: R96, puzzle: Same State NG 1) | 0.876 | 0.373 | 1.02 | – | – | – |
| UAUCCAUAGAUAGGAUAUUAGUGAACAUGAGGAUCACCCAUGUUUGGCUUGGUUUUAAGCUAAUCUGAGAAGGAUCUUGAUGAA [SameState NG2 #7] (Eterna round: R96, puzzle: Same State NG 2) | 0.0985 | 0.15 | 0.164 | – | – | – |
| GGAGCCGGCACGGAGGAUAUUCAUAUUAAAACAUGAGGAUCACCCAUGUAGGCCAGAAGGCCUUGGGAGAAGGCCGAUCGGCUCG [Xeonanis - 15] (Eterna round: R96, puzzle: Same State 2) | 0.258 | 0.0212 | 0.333 | – | – | – |
| UUUACAUUACGAGGAUAUCAAUUAUUUCAUGUAUGAGAAGGCGUUAUUUUUACUACCUUACAUGAGGAUCACCCAUGUUUCAUU [JR_SSNG1_Sub041] (Eterna round: R96, puzzle: Same State NG 1) | 0.0403 | – | – | – | – | – |
| GGAGCCAAGGCAGGAUAUUCAUAUUAAUAACAUGAGGAUCACCCAUGUUGGGCCAGAAGGCCUUGGGAGAAGGGCCAUGGCUCG [Xeonanis - 13 mod17] (Eterna round: R96, puzzle: Same State NG 2) | 0.0247 | 0.0201 | 0.0365 | – | – | – |
| UUACUCAUGUAAGGAUAUGCAGCCGUUUCGGCUGCAGAAGGUACUAUAAUACAUGAGGAUCACCCAUGUCUCUAUAAUUUAGUG [JL SSNG1 1.30] (Eterna round: R96, puzzle: Same State NG 1) | 0.0386 | 0.102 | 0.0497 | – | – | – |
| UCUUGGUUUUUGCUCGUUUUUUGUGUUGAACAUGAGGAUCACCCAUGUAUUGUACGGUCCAAUUUAAUGAUGGUCCA [JMF 36] (puzzle: Sensor for hsa-mir-208a) | – | – | – | 0.0308 | 0.0178 | 0.0324 |
| GGAAACAACACAGGAUAUCCAGAUGAUGAUGAAGGAGAAGGGUGUGCCCACAUGAGGAUCACCCAUGUUACAACGAAUAGAUAA [racquet 1] (Eterna round: R96, puzzle: Same State NG 1) | 0.666 | 0.457 | 1.24 | – | – | – |
| CCGCUAAAUGGAGGAUAUGGAGCCUUAUUGGCUCCAGAAGGCUAAAACAUGAGGAUCACCCAUGUGCGGCGGUCUAAUGACCGA [Eli NG1ss - 49] (Eterna round: R96, puzzle: Same State NG 1) | 0.0346 | 0.0147 | 0.0493 | – | – | – |
| UUGAAGAAUAAAGGAUAUUGAAUACAUAUGUUUAACAUGAGGAUCACCCAUGUGGGUUGCGGUAUCGAGAAGGUUAAUUACUAG [Mat - Same State NG 2 - JL mod - D11] (Eterna round: R96, puzzle: Same State NG 2) | 0.124 | 0.151 | 0.139 | – | – | – |
| GUAGCAUACCGAGGAUAUUCAACAUGAGGAUCACCCAUGUGUUUAUUAUAGGCCAAAAGGCCUUGGGAGAAGGCGGAAUGCUAC [Xeonanis - 20 Mod15] (Eterna round: R96, puzzle: Same State NG 2) | 0.0084 | 0.0094 | 0.0157 | – | – | – |
| UUAAUAAUGUUAGGAUAUACAUGAGGAAUCCUCGUAGAAGGAACAUGACAUGAGGAUCACCCAUGUAGCGCUCAGAAGAGCGCA [Mat - Same State NG 1 - JL mod - D47] (Eterna round: R96, puzzle: Same State NG 1) | 0.0313 | 0.138 | 0.135 | – | – | – |
| ACAUGAGAGAUAGGAUAUCUUGUACCUACAUGUGACAUGAGGAUCACCCAUGUGGUAAGUAUGACAGAGAAGGAUCAGAUAUGU [Equivalance 70 - Jieux - Same State NG 2] (Eterna round: R96, puzzle: Same State NG 2) | 0.0628 | 0.0205 | 0.0824 | – | – | – |
| GUCAGGCAAGCUUUUUUCUCGUAGUGUAAACAUGAGGAUCACCCAUGUGCUCGCCCUGGAUCUUUGGAUCGCGGAAA [Xeatesis] (puzzle: Sensor for hsa-mir-208a) | – | – | – | 0.0346 | 0.0198 | 0.0365 |

| Sequence | apparent KD of MS2 coat protein [1] [µM] | apparent KD of MS2 coat protein (input ligand: FMN 200 uM) [µM] | apparent KD of MS2 coat protein (input ligand: none) [µM] | apparent KD of MS2 coat protein [2] [µM] | apparent KD of MS2 coat protein [3] [µM] | apparent KD of MS2 coat protein [4] [µM] |
| --- | --- | --- | --- | --- | --- | --- |
| UGUACAUGAGGAUCACCCAUGUCUAGACAUGUUAAUAUAAUGUAGGAUAUAUAAAAUUUAAUUUAAUAGAAGGACAAUUUUUUU [JMF's solution 1] (Eterna round: R96, puzzle: Same State NG 3) | 0.218 | 0.278 | 0.297 | – | – | – |
| GUAGCCGGCACUGAGGAUAUUCAUAUUUAAACAUGAGGAUCACCCAUGUAGGCCAGAAGGCCUUGGGAGAAGGCAGGUCGGCUCG [salish99_ss2_r3_081] (puzzle: Same State 2) | – | – | – | 0.0207 | 0.21 | 0.294 |
| UAGAAACAUGAGGAUCACCCAUGUGUCAGAGACAUAGGAUAUCGUAACCAGCGCCGGAUACGAGAAGGGUGGUAAA [Enraxe] (puzzle: Same State 1) | – | – | – | 0.156 | 0.0385 | 0.0513 |
| GCGAUAUGAUGUUACAUGAGGAUCACCCAUGUAGCGAUAGCUAAGGAUAUUGGAAAGGGAGGAGACGAGAAGGUAGGAUCACGC [AK SSNG3-V2-23.1] (Eterna round: R96, puzzle: Same State NG 3) | 0.0157 | 0.0449 | 0.0361 | – | – | – |
| GAGUAGUUGAAAGGAUAUCCAUUGUUAUAGAAUGGAGAAGGUUCUAACAUGAGGAUCACCCAUGUAGGACUAUUCCUGUGUAUC [Parity 81 - Jieux - Same State NG 1] (Eterna round: R96, puzzle: Same State NG 1) | 0.00816 | 0.00998 | 0.0119 | – | – | – |
| UUCUAACAUGAGGAUCACCCAUGUCAUAUGACAUGAGGAUAUGUACAGACUUCGGUCUGUACAGAAGGCAUGUUAG [SS1 - 1011 Omei Mod 7] (puzzle: Same State 1) | – | – | – | 0.0316 | 0.0107 | 0.0205 |
| GGCGUAUAAACAUGAGGAUCACCCAUGUAGCGGAGACGCAAUGAGGAUAUCGAUGGGUUUCCCGUCGAGAAGGCAUGGGUCGCC [JL SSNG3 3.93] (Eterna round: R96, puzzle: Same State NG 3) | 0.0799 | 0.017 | 0.105 | – | – | – |
| AAUUUAAUACAUGAGGAUCACCCAUGUAAUACUUGUAAGAUCAAGGAUAUCAGCUCGAUUAGAGCUGAGAAGGUGAUCACAUGU [SSNG3/19-D2] (Eterna round: R96, puzzle: Same State NG 3) | 0.0216 | – | – | – | – | – |
| UGGCUCAGACGAGGAUAUAUGCGAUCACAUGAGGAUCACCCAUGUCUCGAGCUUCGGCUCGAGGCAUAGAAGGUGUCUGAGCCU [SSNG2/4-C3] (Eterna round: R96, puzzle: Same State NG 2) | 0.0703 | 0.0239 | 0.0947 | – | – | – |
| AUUAAACAUGAGGAUCACCCAUGUCAACAAAGUCGAGGAUAUGGGCAAAUAAUAUAAUAACCAGAAGGCGAAUAAU [salish99_ss1_r3_081] (puzzle: Same State 1) | – | – | – | 0.0367 | 0.0281 | 0.097 |
| GCGAGCGUACUUGCUACAUGAGGAUCACCCAUGUCUAUUGGACAGGAUAUGGUACCGUUUCGGUACCAGAAGGGUUCAUCAUGU [JL SSNG3 3.72] (Eterna round: R96, puzzle: Same State NG 3) | 0.0462 | 0.4 | 0.0346 | – | – | – |
| GGGCCAGCUUUUGCUGGGCCAAAGCUUGCACAUGAGGAUCACCCAUGUCGUGUACACGCUUCCUGCCCGUCUUGUUU [Photon Torp-20] (puzzle: Sensor for hsa-mir-208a) | – | – | – | 0.0265 | 0.0166 | 0.0294 |
| ACAUGAGAGUCAGGAUAUAUUGUACCUACAUGUGACAUGAGGAUCACCCAUGUGGUAAGUAUGACAUAGAAGGGAUAGAUAUGU [Equivalance 85 - Jieux - Same State NG 2] (Eterna round: R96, puzzle: Same State NG 2) | 0.0604 | 0.0627 | 0.0792 | – | – | – |
| AGAUGUUAAUCAGGAUAUGGGCACAUGAGGAUCACCCAUGUAAUUUCGAUACUAUGUGGAGACGUCUAGAAGGGAUGGCUAACA [SameState NG2 #85] (Eterna round: R96, puzzle: Same State NG 2) | 0.101 | 0.162 | 0.134 | – | – | – |
| GUGGUGGGUUGAGGAUAUUGGUUGUUGUUGUCCCACAUGAGGAUCACCCAUGUGGGUUGUGGUUUUGAGAAGGUUGGUUGCUGG [salish99_SSNG2_r04_051] (Eterna round: R96, puzzle: Same State NG 2) | 0.0144 | – | – | – | – | – |
